Patent US20260194540A1 (ARIZONA BOARD OF REGENTS ON BEHALF OF ARIZONA STATE …, published 2026)

Target: T1, TDP-43 from healthy human brain tissue (human, UniProt Q13148 1-414)
T1 construct: also called healthy TDP-43; healthy IP TDP-43
Assay: phage ELISA on human brain tissue

T1 sequence (Q13148 whole entry): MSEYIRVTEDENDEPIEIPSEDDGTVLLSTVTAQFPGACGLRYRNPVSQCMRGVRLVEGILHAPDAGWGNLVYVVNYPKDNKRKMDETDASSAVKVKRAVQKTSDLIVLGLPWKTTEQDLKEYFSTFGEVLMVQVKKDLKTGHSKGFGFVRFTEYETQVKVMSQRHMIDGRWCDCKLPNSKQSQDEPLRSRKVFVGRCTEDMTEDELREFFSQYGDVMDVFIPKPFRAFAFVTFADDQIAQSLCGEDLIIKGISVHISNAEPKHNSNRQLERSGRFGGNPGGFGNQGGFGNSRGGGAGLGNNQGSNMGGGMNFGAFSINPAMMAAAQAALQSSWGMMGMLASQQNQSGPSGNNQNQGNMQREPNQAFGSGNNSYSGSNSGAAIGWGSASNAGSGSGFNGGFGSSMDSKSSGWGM

B1: TDP-43 monomer clone #5 (scFv)
scFv: MAEVQLLESGGGLVRPGGSLRLSCAASGFTFSSYAMSWVRQAPGKGLEWVSDIANTGDATGYADSVKGRFTISRDNSKNTLYLQMNSLRAEDTAVYYCAKTGAAFDYWGQGTLVTVSSGGGGSGGGGSGGGGSTDIQMTQSPSSLSASVGDRVTITCRASQSISSYLNWYQQKPGKAPKLLIYAASTLQSGVPSRFSGSGSGTDFTLTISSLQPEDFATYYCQQSSSDPATFGQGTKVEIKRAA
notes: Tested as scFv attached to a phage particle, tagged with a signal moiety when used for detection; also called monomer phage #5
binding result: binds
